Earlier results as cited in US9700485B2, “Delamination resistant pharmaceutical glass containers containing active pharmaceutical ingredients” (Corning Incorporated, priority 2013, dated 2017).
Read-outs that look alike come from different tables or passages of the source.

Columns and labels:
[1] = in use test, 10 samples, cited from earlier work
[2] = shaking test, 5 samples, cited from earlier work
HT-29 cells = conditions: cited from earlier work
human IL-17 [3] = biological target: T1, human IL-17 (Homo sapiens, UniProt Q16552); conditions: cited from earlier work; for Kd: read-out: KD or binding affinity
EGFR [4] = biological target: T2, EGFR (Homo sapiens, UniProt P00533); conditions: cited from earlier work
EGFR-AP fusion protein = conditions: cited from earlier work; for Koff / Kon: BIAcore, immobilized EGFR-AP fusion protein
EGFR on HT29 cells = biological target: T3, EGFR on HT29 cells (Homo sapiens, UniProt P00533); conditions: 10 to 100 nM; cited from earlier work
T3 construct: HT29 cells were seeded at 2×10^4 cells per well; endogenous in cells; host or cells: HT29

MAP kinases p44/p42 = conditions: A431, BxPC3 and HT-29 cells; EGF stimulation; cited from earlier work
DiFi cells [5] = conditions: 72 hours; cited from earlier work
DiFi cells [6] = conditions: cited from earlier work
A431 cells = conditions: cited from earlier work; for tumor growth: three times per week
BxPC-3 cells = conditions: 1.0 mg/mouse/injection; out of 8 mice; cited from earlier work
A431 and BxPC3 xenograft = A431 and BxPC3 xenograft sections; cited from earlier work
EGFR [7] = biological target: T2, EGFR; set-up: endogenous in cells; host or cells: A431; inhibition of EGFR phosphorylation: dose or concentration left out as unconfirmed; conditions: cited from earlier work
EGFR [8] = biological target: T2, EGFR; set-up: phosphorylation assay, was carried out using BxPC3 or A431 cells; endogenous in cells; host or cells: BxPC3 or A431; conditions: BxPC3 and A431 cells; vs control antibody; cited from earlier work
[9] = −20° C. up to 16 days; DOE; cited from earlier work
[10] = 40° C. up to 14 days; DOE; cited from earlier work
[11] = 300 RPM, room temperature, 72 hours; cited from earlier work
[12] = cited from earlier work
[13] = lyophilized, 4° C., 40° C. and 50° C. up to 4 months; cited from earlier work
[14] = pre and post lyophilized, 0.1 mg/mL; cited from earlier work
[15] = cited from earlier work; for particulate counts =10 μm/mL / particulate counts =25 μm/mL / particulate counts =50 μm/mL: HIAC
human IL-17 [16] = biological target: T1, human IL-17; conditions: as characterized in the description, cited from earlier work
hTNFSF13b = biological target: T4, hTNFSF13b (Homo sapiens, UniProt Q9Y275); conditions: as characterized in the description (e.g.); cited from earlier work
T4 construct: purchased Research Diagnostics, Inc., Flanders, N.J

[17] = After Lyophilization, reconstituted to 5 mg/mL
[18] = Before Lyophilization, diluted to 5 mg/mL

T1 sequence (Q16552 24-155): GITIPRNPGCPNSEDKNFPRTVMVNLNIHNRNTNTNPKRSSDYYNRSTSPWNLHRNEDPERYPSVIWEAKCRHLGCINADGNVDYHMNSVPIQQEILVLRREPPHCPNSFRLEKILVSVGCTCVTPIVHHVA
T4 sequence (Q9Y275 134-285 limits assumed): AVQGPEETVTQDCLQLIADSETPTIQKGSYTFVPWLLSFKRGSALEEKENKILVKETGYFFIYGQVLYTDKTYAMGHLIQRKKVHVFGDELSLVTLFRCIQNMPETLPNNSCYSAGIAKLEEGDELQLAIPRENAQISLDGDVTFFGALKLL

21^A-Gly-30^Ba-L-Arg-30^B-L-Arg human insulin [Insulin glargine]
Number of vials with particle formation after 7 days ([1]; storage for 1 month at 37° C.): 0 | Number of vials with particle formation after 14 days ([1]; storage for 1 month at 37° C.): 10 | Number of vials with particle formation after 21 days ([1]; storage for 1 month at 37° C.): 10 | Number of vials with particle formation after 28 days ([1]; storage for 1 month at 37° C.): 10 | Number of vials with particle formation after 7 days ([1]; storage for 3 months at 5° C.): 7 | Number of vials with particle formation after 14 days ([1]; storage for 3 months at 5° C.): 10 | Number of vials with particle formation after 21 days ([1]; storage for 3 months at 5° C.): 10 | Number of vials with particle formation after 28 days ([1]; storage for 3 months at 5° C.): 10 | Number of vials with particle formation after 7 days ([1]; storage for 3 months at 25° C.): 9 | Number of vials with particle formation after 14 days ([1]; storage for 3 months at 25° C.): 10 | Number of vials with particle formation after 21 days ([1]; storage for 3 months at 25° C.): 10 | Number of vials with particle formation after 28 days ([1]; storage for 3 months at 25° C.): 10 | Number of vials with particle formation after 7 days ([1]; storage for 3 months at 37° C.): 5 | Number of vials with particle formation after 14 days ([1]; storage for 3 months at 37° C.): 9 | Number of vials with particle formation after 21 days ([1]; storage for 3 months at 37° C.): 10 | Number of vials with particle formation after 28 days ([1]; storage for 3 months at 37° C.): 10 | Number of vials with particle formation after 7 days ([1]; storage for 6 months at 5° C.): 7 | Number of vials with particle formation after 14 days ([1]; storage for 6 months at 5° C.): 10 | Number of vials with particle formation after 21 days ([1]; storage for 6 months at 5° C.): 10 | Number of vials with particle formation after 28 days ([1]; storage for 6 months at 5° C.): 10 | Number of vials with particle formation after 7 days ([1]; storage for 6 months at 25° C.): 10 | Number of vials with particle formation after 14 days ([1]; storage for 6 months at 25° C.): 10 | Number of vials with particle formation after 21 days ([1]; storage for 6 months at 25° C.): 10 | Number of vials with particle formation after 28 days ([1]; storage for 6 months at 25° C.): 10 | Number of vials with particle formation after 7 days ([1]; storage for 6 months at 37° C.): 10 | Number of vials with particle formation after 14 days ([1]; storage for 6 months at 37° C.): 10 | Number of vials with particle formation after 21 days ([1]; storage for 6 months at 37° C.): 10 | Number of vials with particle formation after 28 days ([1]; storage for 6 months at 37° C.): 10 | Number of Vials >15 FNU, 0 days ([2]; storage for 1 month at 5° C.): 0 | Number of Vials >15 FNU, 0.5 days ([2]; storage for 1 month at 5° C.): 0 | Number of Vials >15 FNU, 1 day ([2]; storage for 1 month at 5° C.): 0 | Number of Vials >15 FNU, 2 days ([2]; storage for 1 month at 5° C.): 2 | Number of Vials >15 FNU, 3 days ([2]; storage for 1 month at 5° C.): 3 | Number of Vials >15 FNU, 4 days ([2]; storage for 1 month at 5° C.): 3 | Number of Vials >15 FNU, 6 days ([2]; storage for 1 month at 5° C.): 4 | Number of Vials >15 FNU, 8 days ([2]; storage for 1 month at 5° C.): 4 | Number of Vials >15 FNU, 10 days ([2]; storage for 1 month at 5° C.): 4 | Number of Vials >15 FNU, 0 days ([2]; storage for 1 month at 25° C.): 0 | Number of Vials >15 FNU, 0.5 days ([2]; storage for 1 month at 25° C.): 0 | Number of Vials >15 FNU, 1 day ([2]; storage for 1 month at 25° C.): 0 | Number of Vials >15 FNU, 2 days ([2]; storage for 1 month at 25° C.): 1 | Number of Vials >15 FNU, 3 days ([2]; storage for 1 month at 25° C.): 1 | Number of Vials >15 FNU, 4 days ([2]; storage for 1 month at 25° C.): 1 | Number of Vials >15 FNU, 6 days ([2]; storage for 1 month at 25° C.): 1 | Number of Vials >15 FNU, 8 days ([2]; storage for 1 month at 25° C.): 2 | Number of Vials >15 FNU, 10 days ([2]; storage for 1 month at 25° C.): 3 | Number of Vials >15 FNU, 0 days ([2]; storage for 1 month at 37° C.): 0 | Number of Vials >15 FNU, 0.5 days ([2]; storage for 1 month at 37° C.): 0 | Number of Vials >15 FNU, 1 day ([2]; storage for 1 month at 37° C.): 0 | Number of Vials >15 FNU, 2 days ([2]; storage for 1 month at 37° C.): 2 | Number of Vials >15 FNU, 3 days ([2]; storage for 1 month at 37° C.): 5 | Number of Vials >15 FNU, 4 days ([2]; storage for 1 month at 37° C.): 5 | Number of Vials >15 FNU, 6 days ([2]; storage for 1 month at 37° C.): 5 | Number of Vials >15 FNU, 8 days ([2]; storage for 1 month at 37° C.): 5 | Number of Vials >15 FNU, 10 days ([2]; storage for 1 month at 37° C.): 5

Human IL-17: recombinant human IL-17 (R&D Systems)
AVG GROα (HT-29 cells; Human IL-17 0.10 ng/mL): 205.8 pg/mL | AVG GROα (HT-29 cells; Human IL-17 12.00 ng/mL): 960.0 pg/mL | AVG GROα (pg/mL) (HT-29 cells; Human IL-17 60.00 ng/mL): 1,556.0 pg/mL | AVG GROα (pg/mL) (HT-29 cells; Human IL-17 300.00 ng/mL): 2,047.5 pg/mL | AVG GROα (pg/mL) (HT-29 cells; Human IL-17 1500.00 ng/mL): 2,420.4 pg/mL

IL-17 receptor Fc-fusion protein: IL-17 receptor Fc-fusion protein (R&D #177-IR)
fast off-rate (human IL-17 [3]; Bivalent analyte model, 25° C.): 20.3 s⁻¹ | on-rate (human IL-17 [3]; Bivalent analyte model, 25° C.): 106000 M⁻¹ s⁻¹ | slow off-rate (human IL-17 [3]; Bivalent analyte model, 25° C.): 0.000163 s⁻¹ | Kd (human IL-17 [3]; from fast off-rate): 190000 nM | Kd (human IL-17 [3]; from slow off-rate): 1.5 nM

IMC-11F8: fully human monoclonal antibody (IgG1) that binds to human EGFR
binding to EGFR (ELISA) (EGFR [4]): comparable binding to EGFR | Koff (EGFR-AP fusion protein; Format Fab): 36.7 ± 8.5 10^−4s^−1 | Kon (EGFR-AP fusion protein; Format Fab): 22.9 ± 9.9 10^5 M^−1s^−1 | Kd (EGFR-AP fusion protein; Format Fab, calculated as koff/kon): 1.78 ± 0.5 nM | Koff (EGFR-AP fusion protein; Format IgG): 5.8 ± 2.2 10^−4s^−1 | Kon (EGFR-AP fusion protein; Format IgG): 18.6 ± 7.7 10^5 M^−1s^−1 | inhibition of ^125I-EGF binding (EGFR on HT29 cells): as efficient as IMC-C225 in inhibiting ^125I-EGF binding to EGFR on HT29 cells | p44/42 MAP kinases phosphorylation (MAP kinases p44/p42): blocked p44/42 MAP kinases phosphorylation following EGF stimulation in A431, BxPC3 and HT-29 cells in a dose-dependent manner | inhibition of cell proliferation (MTT) (DiFi cells [5]): as potent an inhibitor of cell proliferation as IMC-C225 | ADCC activity (DiFi cells [6]): mediate cell death via activation of the Antibody Dependent Cellular Cytotoxicity | tumor growth (A431 cells; 0.3 mg dose i.p.): progression of tumor growth is retarded | tumor growth (A431 cells; 1 mg dose i.p.): as effective as IMC-C225 (CETUXIMAB) in suppressing or inhibiting tumor growth as compared to control animals | tumor regressions (A431 cells; 1.0 mg/mouse/injection, out of 8 animals): 6 | tumor regression (BxPC-3 cells): 5 | Ki-67 positive cells (A431 and BxPC3 xenograft): reduced the percentage of Ki-67 positive cells across the entire tumor section | tumor cell density and necrotic area (IHC) (A431 and BxPC3 xenograft): markedly reduced the tumor cell density and increased the area of necrotic acellular debris within the tumors | inhibition of EGFR phosphorylation (EGFR [7]; A431, BxPC3, HT-29, lowest antibody concentration tested): Greater than 70% | EGFR phosphorylation (Western blot) (EGFR [7]; A431 cells): inhibits EGFR phosphorylation | phosphorylation of EGFR (KIRA) (EGFR [8]): marked decrease in phosphorylation of EGFR

IMC-1121B: fully human monoclonal (IgG1) anti-VEGFR-2 (flk-1) antibody
optimal pH [9]: 6.0 | optimal buffer [10]: histidine at pH 6.0

IMC-A12: fully human IgG1/λ monoclonal antibody binding insulin-like growth factor-I receptor (IGF-IR)
percent loss and percent monomer as a function of pH [11]: Percent loss was least and percent monomer was highest between pH 6.0-7.0 | percent monomer ([12]; −20° C. and −70° C. up to 3 months, PBS and Citrate formulations): The percent monomer did not change with time in either formulation | percent monomer as a function of pH ([12]; −20° C. and −70° C., three weeks): The pH did not have significant effect on percent monomer | rate of monomer change [13]: smallest at lowest IMC-A12 concentration and at highest trehalose to IMC-A12 ratio | secondary structure (circular dichorism) [14]: Secondary structure of IMC-A12 was not altered because of lyophilization | particulate counts =10 μm/mL [15, 17]: 38.67 mL⁻¹ | particulate counts =25 μm/mL [15, 17]: 0.33 mL⁻¹ | particulate counts =50 μm/mL [15, 17]: 0.00 mL⁻¹ | particulate counts =10 μm/mL [15, 18]: 26.33 mL⁻¹ | particulate counts =25 μm/mL [15, 18]: 1.67 mL⁻¹ | particulate counts =50 μm/mL [15, 18]: 0.00 mL⁻¹ | particulate counts (HIAC) ([15]; before and after lyophilization, 5 mg/mL): The particulate counts did not changed significantly

LY2439821: humanized anti-IL-17 (IL-17A) monoclonal antibody
koff rate from human IL-17 (human IL-17 [16]): less than 2×10^−5 s^−1 | Kd (human IL-17 [16]; read-out: binding affinity (KD) for human IL-17): < 0.007 nM

B1: LY2127399: human monoclonal antibody that specifically binds to TNFSF13b polypeptides (antibody, chains of the INN, looked up, V domains shown)
VH: QVQLQQWGAGLLKPSETLSLTCAVYGGSFSGYYWSWIRQPPGKGLEWIGEINHSGSTNYNPSLKSRVTISVDTSKNQFSLKLSSVTAADTAVYYCARGYYDILTGYYYYFDYWGQGTLVTVSS
VL: EIVLTQSPATLSLSPGERATLSCRASQSVSRYLAWYQQKPGQAPRLLIYDASNRATGIPARFSGSGSGTDSTLTISSLEPEDFAVYYCQQRSNWPRTFGQGTKVEIK
Kd (hTNFSF13b): ≤ 10 nM
